Data: patent US20040204388A1 (UCB, published 2004)

Target: T1, SV2A (rat); native protein of rat brain membranes, solubilized in n-dodecyl-β-D-maltoside; also endogenous in … (rat, UniProt Q02563 1-742)
T1 construct: Native protein from rat tissue or cells, not a recombinant construct; Native glycosylated integral membrane protein; also called soluble SV2A; immunopurified SV2A
Test: Western blot of fractions immunopurified with anti-SV2A antibodies from solubilized rat brain membranes
Method: The rat brain membranes were diluted in a solubilization buffer (Tris-HCl 20 mM pH 7.4, 0.25 M sucrose, protease inhibitors Complete Roche) containing n-dodecyl-β-D-maltoside 15 mM and incubated for two hours at 4° C. Subsequently, the solution was centrifuged at 4° C. for one hour at 100,000 g.

T1 sequence (Q02563 whole entry C340F): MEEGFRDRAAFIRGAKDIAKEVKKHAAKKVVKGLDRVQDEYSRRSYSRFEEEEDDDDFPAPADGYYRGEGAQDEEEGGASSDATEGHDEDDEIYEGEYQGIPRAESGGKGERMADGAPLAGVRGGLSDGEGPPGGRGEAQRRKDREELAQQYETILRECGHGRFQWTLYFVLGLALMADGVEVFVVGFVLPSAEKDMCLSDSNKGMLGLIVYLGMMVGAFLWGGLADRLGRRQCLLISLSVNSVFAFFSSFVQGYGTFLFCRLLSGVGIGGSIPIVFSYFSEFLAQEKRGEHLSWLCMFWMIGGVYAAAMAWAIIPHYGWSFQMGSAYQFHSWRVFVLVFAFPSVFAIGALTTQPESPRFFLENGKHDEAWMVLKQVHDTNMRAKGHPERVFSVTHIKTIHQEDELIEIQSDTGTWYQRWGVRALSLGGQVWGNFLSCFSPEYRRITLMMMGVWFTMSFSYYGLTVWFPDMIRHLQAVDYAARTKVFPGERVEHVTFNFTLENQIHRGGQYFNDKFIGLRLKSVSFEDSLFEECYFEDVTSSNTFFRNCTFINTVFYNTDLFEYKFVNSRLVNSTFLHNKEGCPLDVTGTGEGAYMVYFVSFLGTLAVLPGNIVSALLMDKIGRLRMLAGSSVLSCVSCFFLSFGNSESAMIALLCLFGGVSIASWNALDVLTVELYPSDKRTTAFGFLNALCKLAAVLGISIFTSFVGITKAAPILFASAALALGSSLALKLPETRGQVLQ

binding result: no binding
B1: SV2B (rat; native isoform in rat brain membranes) (other)
chain: MDDYRYRDNYEGYAPNDGYYRGNEQNPEEDAQSDVTEGHDEEDEIYEGEYQGIPHPDDVKSKQTKMAPSRADGLRGQADLMAERMEDEEQLAHQYETIIDECGHGRFQWTLFFVLVLALMADGVEVFVVSFALPSAEKDMCLSSSKKGMLGLIVYLGMMAGAFILGGLADKLGRKKVLSMSLAINASFASLSSFVQGYGAFLFCRLISGIGIGGSLPIVFAYFSEFLSREKRGEHLSWLGIFWMTGGIYASAMAWSIIPHYGWGFSMGTNYHFHSWRVFVIVCALPATVSMVALKFMPESPRFLLEMGKHDEAWMILKQVHDTNMRAKGTPEKVFTVSHIKTPKQMDEFIEIQSSTGTWYQRWLVRFMTIFKQVWDNALYCVMGPYRMNTLILAVVWFTMALSYYGLTVWFPDMIRYFQDEEYKSKMKVFFGEHVHGATINFTMENQIHQHGKLVNDKFIKMYFKHVLFEDTFFDKCYFEDVTSTDTYFKNCTIESTTFYNTDLYKHKFIDCRFINSTFLEQKEGCHMDFEEDNDFLIYLVSFLGSLSVLPGNIISALLMDRIGRLKMIGGSMLISAVCCFFLFFGNSESAMIGWQCLFCGTSIAAWNALDVITVELYPTNQRATAFGILNGLCKLGAILGNTIFASFVGITKVVPILLAAASLVGGGLVALRLPETREQVLM
notes: Native protein of rat brain; also called isoform SV2B
